The assay deals with wild-type (WT) GSK-3β (human, UniProt P49841 1-420, phosphorylated at Tyr 216 (shown by western blot)). In words: cell-based or functional assay.

Where no end group is shown, it is not given here. [ ]: non-standard residue; d: D form. The star is where a group is joined. Myristoyl = CCCCCCCCCCCCCC(=O)*; pS = N[C@@H](COP(=O)(O)O)C(=O)O

Chain of wild-type (WT) GSK-3β (P49841 other isoform, or with tags, fused parts or gaps limits assumed): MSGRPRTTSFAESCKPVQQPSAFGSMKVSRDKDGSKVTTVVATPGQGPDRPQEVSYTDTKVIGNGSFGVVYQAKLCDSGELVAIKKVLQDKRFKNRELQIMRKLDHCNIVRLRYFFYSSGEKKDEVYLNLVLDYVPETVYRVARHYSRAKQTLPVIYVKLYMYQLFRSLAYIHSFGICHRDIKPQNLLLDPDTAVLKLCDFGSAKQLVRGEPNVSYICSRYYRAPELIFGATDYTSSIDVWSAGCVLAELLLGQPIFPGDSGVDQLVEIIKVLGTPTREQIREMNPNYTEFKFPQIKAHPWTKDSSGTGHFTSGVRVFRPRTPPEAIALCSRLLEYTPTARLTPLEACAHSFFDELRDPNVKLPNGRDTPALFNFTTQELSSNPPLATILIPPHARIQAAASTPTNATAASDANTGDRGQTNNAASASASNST

B1: L806-mts, Myr-GKEAPPAPPPS(p)P (peptide)
peptide: Myristoyl-GKEAPPAPPP[pS]P
For the molecule B1, the “IC50, in vitro kinase assays with GSK-3β at increasing inhibitor concentrations” value is roughly 1000 nM.

B2: PQ9A (L803 variant where Gln9 was replaced by alanine) (peptide)
peptide: KEAPPAPPA[pS]P
Regarding B2, the “inhibition of GSK-3β in in vitro kinase assays (substrate phosphorylation, no inhibitor = 100%)” value was ~2 fold relative to L803.

The values above are taken from patent US20160130303A1 (RAMOT AT TEL AVIV UNIVERSITY, published 2016).
